In US20210292396A1:
Where a chain is given by its changes, count along the chain named.

Experiments:
Experiment in all cases: cell-based or functional assay
[1] = biological target: Env of HIV isolate 0013095-2.11 (clade C) (HIV)
[2] = biological target: Env of HIV isolate 0815.v3.c3 (clade ACD) (HIV)
[3] = biological target: Env of HIV isolate 269-12 (clade AG) (HIV)
[4] = biological target: Env of HIV isolate 3718.v3.c11 (clade A) (HIV)
[5] = biological target: Env of HIV isolate 3817.v2.c59 (clade CD) (HIV)
[6] = biological target: Env of HIV isolate 57128.vrc15 (clade D) (HIV)
[7] = biological target: Env of HIV isolate 6545.v4.c1 (clade AC) (HIV)
[8] = biological target: Env of HIV isolate 6838.v1.c35 (clade C) (HIV)
[9] = biological target: Env of HIV isolate 96ZM651.02 (clade C) (HIV)
[10] = biological target: Env of HIV isolate A03349M1.vrc4a (clade D) (HIV)
[11] = biological target: Env of HIV isolate AC10.29 (clade B) (HIV)
[12] = biological target: Env of HIV isolate BJOX025000.01.1 (clade AE) (HIV)
[13] = biological target: Env of HIV isolate BR025.9 (clade C) (HIV)
[14] = biological target: Env of HIV isolate CAAN.A2 (clade B) (HIV)
[15] = biological target: Env of HIV isolate CAP256.206.C9 (clade C) (HIV)
[16] = biological target: Env of HIV isolate CH038.12 (clade BC) (HIV)
[17] = biological target: Env of HIV isolate CH181.12 (clade BC) (HIV)
[18] = biological target: Env of HIV isolate CNE31 (clade C) (HIV)
[19] = biological target: Env of HIV isolate CNE40 (clade BC) (HIV)
[20] = biological target: Env of HIV isolate CNE55 (clade AE) (HIV)
[21] = biological target: Env of HIV isolate HO86.8 (clade B) (HIV)
[22] = biological target: Env of HIV isolate P0402.c2.11 (clade G) (HIV)
[23] = biological target: Env of HIV isolate Q842.d12 (clade A) (HIV)
[24] = biological target: Env of HIV isolate R3265.c6 (clade AE) (HIV)
[25] = biological target: Env of HIV isolate REJO.67 (clade B) (HIV)
[26] = biological target: Env of HIV isolate RW020.2 (clade A) (HIV)
[27] = biological target: Env of HIV isolate T251-18 (clade AG) (HIV)
[28] = biological target: Env of HIV isolate T266-60 (clade AG) (HIV)
[29] = biological target: Env of HIV isolate THRO.18 (clade B) (HIV)
[30] = biological target: Env of HIV isolate ZM135.10a (clade C) (HIV)
[31] = biological target: Env of HIV isolate ZM197.7 (clade C) (HIV)
[32] = biological target: Env of HIV isolate ZM215.8 (clade C) (HIV)
[33] = biological target: Env of HIV isolate ZM249.1 (clade C) (HIV)
[34] = biological target: Env of HIV isolate ZM53.12 (clade C) (HIV)
[35] = biological target: Envelope protein of SVA.MLV (clade NA)
[36] = biological target: HIV Env of isolate 247-23 (HIV)
[37] = biological target: HIV Env of isolate 286.36 (HIV)
[38] = biological target: HIV Env of isolate 96ZM651.02 (HIV)
[39] = biological target: HIV Env of isolate BR025.9 (HIV)
[40] = biological target: HIV Env of isolate CH181.12 (HIV)
[41] = biological target: HIV Env of isolate CNE15 (HIV)
[42] = biological target: HIV Env of isolate CNE30 (HIV)
[43] = biological target: HIV Env of isolate Ce1176.A3 (HIV)
[44] = biological target: HIV Env of isolate DU151.02 (HIV)
[45] = biological target: HIV Env of isolate MW965.26 (HIV)
[46] = biological target: HIV Env of isolate NKU3006.ec1 (HIV)
[47] = biological target: HIV Env of isolate X2131.C1.B5 (HIV)
[48] = biological target: HIV Env of isolate ZM109.4 (HIV)
[49] = biological target: HIV Env of isolate ZM176.66 (HIV)
[50] = biological target: HIV Env of isolate ZM53.12 (HIV)

B1: ePGT121.18 (ePGT121.18.H1 VH and ePGT121.17.L1 VL) (antibody, V domains shown)
VH: QMQLQESGPGLVKPGETLSLTCSVSGASISSSYWSWLRETPGKGLEWIGYTHHSGDTNYAPSLKSRVHLGLHPSKNQVSLSLTSVTAADTAVYYCARTLHGRRIYGVVAFNEYYTYFYWPTWGKGTQVTVSS
VL: SDISVAPGETVRITCGGESIGSRAVQWYQHRPGQAPRLIIYNNQDRPPGIPERFSGSPDIDFGTTATLTISNVEAGDEATYYCHIWDSRRPTNWELGPGTTLTVL
For B1, the IC50, pseudovirus neutralization [1] was 0.537 µg/mL, the IC50, pseudovirus neutralization [2] was 0.001 µg/mL and the IC50, pseudovirus neutralization [3] was 0.003 µg/mL. It also gave an IC50, pseudovirus neutralization [4] of 0.267 µg/mL, an IC50, pseudovirus neutralization [5] of 0.546 µg/mL and an IC50, pseudovirus neutralization [6] of 0.004 µg/mL. It also gave an IC50, pseudovirus neutralization [7] greater than 50 µg/mL, an IC50, pseudovirus neutralization [8] of 0.386 µg/mL and an IC50, pseudovirus neutralization [9] of 0.0007 µg/mL. The IC50, pseudovirus neutralization [10] was 0.002 µg/mL, the IC50, pseudovirus neutralization [11] was 0.001 µg/mL and the IC50, pseudovirus neutralization [12] was greater than 50 µg/mL. For the same binder, the IC50, pseudovirus neutralization [13] was 0.001 µg/mL, the IC50, pseudovirus neutralization [14] was 0.002 µg/mL and the IC50, pseudovirus neutralization [15] was 0.001 µg/mL. The IC50, pseudovirus neutralization [16] was 0.0008 µg/mL, the IC50, pseudovirus neutralization [17] was 0.001 µg/mL and the IC50, pseudovirus neutralization [18] was 0.015 µg/mL. For the same binder, the IC50, pseudovirus neutralization [19] was 0.015 µg/mL, the IC50, pseudovirus neutralization [20] was greater than 50 µg/mL and the IC50, pseudovirus neutralization [21] was greater than 50 µg/mL. For the same binder, the IC50, pseudovirus neutralization [22] was 0.002 µg/mL, the IC50, pseudovirus neutralization [23] was 0.002 µg/mL and the IC50, pseudovirus neutralization [24] was greater than 50 µg/mL. It also gave an IC50, pseudovirus neutralization [25] of 0.731 µg/mL, an IC50, pseudovirus neutralization [26] of 0.002 µg/mL and an IC50, pseudovirus neutralization [27] of 0.019 µg/mL. The IC50, pseudovirus neutralization [28] was 0.003 µg/mL, the IC50, pseudovirus neutralization [29] was greater than 50 µg/mL and the IC50, pseudovirus neutralization [30] was 0.026 µg/mL. For the same binder, the IC50, pseudovirus neutralization [31] was greater than 50 µg/mL, the IC50, pseudovirus neutralization [32] was 0.006 µg/mL and the IC50, pseudovirus neutralization [33] was 0.134 µg/mL. It also gave an IC50, pseudovirus neutralization [34] of 0.003 µg/mL, an IC50, pseudovirus neutralization [35] greater than 50 µg/mL and an IC80, pseudovirus neutralization (M1) [36] greater than 50 µg/mL. The IC80, pseudovirus neutralization (M2) [36] was greater than 50 µg/mL, the IC80, pseudovirus neutralization (M1) [37] was 0.003 µg/mL and the IC80, pseudovirus neutralization (M2) [37] was 0.004 µg/mL. It also gave an IC80, pseudovirus neutralization (M1) [38] of 0.002 µg/mL, an IC80, pseudovirus neutralization (M2) [38] of 0.003 µg/mL and an IC80, pseudovirus neutralization (M1) [39] of 0.004 µg/mL. For the same binder, the IC80, pseudovirus neutralization (M2) [39] was 0.004 µg/mL, the IC80, pseudovirus neutralization (M1) [40] was 0.003 µg/mL and the IC80, pseudovirus neutralization (M2) [40] was 0.004 µg/mL. For the same binder, the IC80, pseudovirus neutralization (M1) [41] was 36.4 µg/mL, the IC80, pseudovirus neutralization (M2) [41] was greater than 50 µg/mL and the IC80, pseudovirus neutralization (M1) [42] was 0.013 µg/mL. For the same binder, the IC80, pseudovirus neutralization (M2) [42] was 0.016 µg/mL, the IC80, pseudovirus neutralization (M1) [43] was 0.006 µg/mL and the IC80, pseudovirus neutralization (M2) [43] was 0.006 µg/mL. For the same binder, the IC80, pseudovirus neutralization (M1) [44] was 0.003 µg/mL, the IC80, pseudovirus neutralization (M2) [44] was 0.003 µg/mL and the IC80, pseudovirus neutralization (M1) [45] was 0.006 µg/mL. It also gave an IC80, pseudovirus neutralization (M2) [45] of 0.004 µg/mL, an IC80, pseudovirus neutralization (M1) [46] greater than 50 µg/mL and an IC80, pseudovirus neutralization (M2) [46] greater than 50 µg/mL. For the same binder, the IC80, pseudovirus neutralization (M1) [47] was 0.002 µg/mL, the IC80, pseudovirus neutralization (M2) [47] was 0.003 µg/mL and the IC80, pseudovirus neutralization (M1) [48] was greater than 50 µg/mL. The IC80, pseudovirus neutralization (M2) [48] was greater than 50 µg/mL, the IC80, pseudovirus neutralization (M1) [49] was 0.091 µg/mL and the IC80, pseudovirus neutralization (M2) [49] was 0.106 µg/mL. For the same binder, the IC80, pseudovirus neutralization (M1) [50] was 0.02 µg/mL and the IC80, pseudovirus neutralization (M2) [50] was 0.032 µg/mL.

B2: ePGT121.18.17 (ePGT121.18.H17 VH and ePGT121.17.L1 VL) (antibody, V domains shown)
VH: B1 VH with H68T, L69I, H72D
VL: B1 VL
Binder B2 has an IC50, pseudovirus neutralization [1] of 1.68 µg/mL, an IC50, pseudovirus neutralization [2] of 0.005 µg/mL and an IC50, pseudovirus neutralization [3] of 0.01 µg/mL. The IC50, pseudovirus neutralization [4] was 0.957 µg/mL, the IC50, pseudovirus neutralization [5] was 4.75 µg/mL and the IC50, pseudovirus neutralization [6] was 0.012 µg/mL. The IC50, pseudovirus neutralization [7] was greater than 50 µg/mL, the IC50, pseudovirus neutralization [8] was 0.576 µg/mL and the IC50, pseudovirus neutralization [9] was 0.003 µg/mL. It also gave an IC50, pseudovirus neutralization [10] of 0.009 µg/mL, an IC50, pseudovirus neutralization [11] of 0.004 µg/mL and an IC50, pseudovirus neutralization [12] greater than 50 µg/mL. The IC50, pseudovirus neutralization [13] was 0.003 µg/mL, the IC50, pseudovirus neutralization [14] was 0.004 µg/mL and the IC50, pseudovirus neutralization [15] was 0.004 µg/mL. For the same binder, the IC50, pseudovirus neutralization [16] was 0.002 µg/mL, the IC50, pseudovirus neutralization [17] was 0.004 µg/mL and the IC50, pseudovirus neutralization [18] was 0.089 µg/mL. For the same binder, the IC50, pseudovirus neutralization [19] was 0.036 µg/mL, the IC50, pseudovirus neutralization [20] was greater than 50 µg/mL and the IC50, pseudovirus neutralization [21] was greater than 50 µg/mL. The IC50, pseudovirus neutralization [22] was 0.004 µg/mL, the IC50, pseudovirus neutralization [23] was 0.007 µg/mL and the IC50, pseudovirus neutralization [24] was greater than 50 µg/mL. It also gave an IC50, pseudovirus neutralization [25] of 1.43 µg/mL, an IC50, pseudovirus neutralization [26] of 0.003 µg/mL and an IC50, pseudovirus neutralization [27] of 0.041 µg/mL. The IC50, pseudovirus neutralization [28] was 0.014 µg/mL, the IC50, pseudovirus neutralization [29] was greater than 50 µg/mL and the IC50, pseudovirus neutralization [30] was 0.145 µg/mL. For the same binder, the IC50, pseudovirus neutralization [31] was greater than 50 µg/mL, the IC50, pseudovirus neutralization [32] was 0.016 µg/mL and the IC50, pseudovirus neutralization [33] was 0.332 µg/mL. The IC50, pseudovirus neutralization [34] was 0.015 µg/mL, the IC50, pseudovirus neutralization [35] was greater than 50 µg/mL and the IC80, pseudovirus neutralization [36] was greater than 50 µg/mL. For the same binder, the IC80, pseudovirus neutralization [37] was 0.006 µg/mL, the IC80, pseudovirus neutralization [38] was 0.006 µg/mL and the IC80, pseudovirus neutralization [39] was 0.008 µg/mL. It also gave an IC80, pseudovirus neutralization [40] of 0.011 µg/mL, an IC80, pseudovirus neutralization [41] greater than 50 µg/mL and an IC80, pseudovirus neutralization [42] of 0.047 µg/mL. For the same binder, the IC80, pseudovirus neutralization [43] was 0.017 µg/mL, the IC80, pseudovirus neutralization [44] was 0.005 µg/mL and the IC80, pseudovirus neutralization [45] was 0.011 µg/mL. The IC80, pseudovirus neutralization [46] was greater than 50 µg/mL, the IC80, pseudovirus neutralization [47] was 0.007 µg/mL and the IC80, pseudovirus neutralization [48] was greater than 50 µg/mL. The IC80, pseudovirus neutralization [49] was 0.454 µg/mL and the IC80, pseudovirus neutralization [50] was 0.079 µg/mL.

B3: ePGT121.15.H2.L1 (antibody, V domains shown)
VH: B1 VH with Y113W, Y114F, P120E, T121V
VL: B1 VL with T14S, P32A, R37K, S71T, E95V, L96F, P98G
B3 showed a neutralization (Table 6 value) [42] of 0.00312.
